Reference: patent US20170029794

Columns and labels:
[1] = test system: TALEN right arm (pCLS9996) (artificial (Xanthomonas TALE?)); experiment: cell_activity; settings: paired with left arm P2; 153 of 153 galactose colonies of homozygous sup4-(CAG) diploid yeast show repeat contraction; >99% gene conversion in heterozygous …
[2] = test system: TALEN left arm (pCLS16715) (artificial (Xanthomonas TALE?)); experiment: cell_activity; settings: paired with right arm P1; 153 of 153 galactose colonies of homozygous sup4-(CAG) diploid yeast show repeat contraction; >99% gene conversion in heterozygous …

Sequence | activity [1] [%] | activity [2] [%]
GCTGCTGCTGCTGCT (double strand) [right TALE target site in sup4-(CAG)] | 100 | –
GTGATCCCCCCAGCA (double strand) [left TALE target site in sup4-(CAG)] | – | 100
